# Results taken from paper PMC4894640, “RAB-10 Promotes EHBP-1 Bridging of Filamentous Actin and Tubular Recycling Endosomes” (PLoS Genetics, 2016).
# B1: GST-EHBP-1(260-510aa) (domain or fragment, C. elegans, UniProt G5ECW3 260-510, looked up)
# chain: APAPIATNRHSRSSRASTEEKASTTIEFRVDSNSRHVPVTAIATPYYLQSGTMSRGRSNSPRAPSRDAVPQPIDGETLLSWCQRVTNGYSHVKVNDFMKSWNNGLALCAVLHSYRPDLIGDYETLDISNNMSGRISNIQRALDSLTLIGITEVPTVDMFLTPDRKQIEFLLQHLRRIFEGFDEGSTPASASDHRISRTFGINESEEKVVAMITEIRNQKDLEEAVDYRHIPDEVPVTPQLASRNPALNQPT
# notes: C. elegans EHBP-1, central calponin homology (CH) domain, residues 260-510; Cloned into pGEX-2T modified with a Gateway cassette; also called GST-CH; GST-EHBP-1-CH (aa260-510); source: E. coli ArcticExpress, purified (glutathione-Sepharose 4B, eluted with glutathione); held on glutathione beads for the pull-down
# Molecular target: F-actin (polymerized non-muscle actin) (UniProt P60709 1-375)
# Test: co-sedimentation; GST fusion protein incubated with 40 ul freshly polymerized non-muscle actin (21 uM F-actin) or F-actin buffer alone, 30 min at room temperature, 150,000 x g 1.5 h at 24 C; supernatant and pellet on SDS-PAGE, coomassie or western blot, densitometry
# Conditions: both partners purified
binder,measurement,value
B1,P/S ratio (pellet/supernatant) with actin filaments,~80%
